Results: the DeepSol protein solubility set

Test: soluble on expression in E. coli; label from the status in PepcDB or PDB records

Sequence | soluble on expression in E. coli
MVYSKTFRVEEKSITVSARGTIGVVFYRDFAYLPAVSLICFVPKEEFDIRFLFHALRAIKFKKQGSATGQLTVAQFKEYGIHVPSLKKQKEIAAILDPLYSFFTDLNEGLPAEIELRKKQLDYYQNFLFNWIQKQKELVEQASTN | soluble
MESENQIAILDYIFNQVNQPNQPKIVWFSGEGEDEKINFLIRLNDFFKPKFVENTNDSSFLLSFRNHVETKNSTPLTQANFANIANKLLAVLFGSLQWKQLNK | not soluble
MNSVITQKVSSGVTLYADTKTGGFMNRTILVPIDISDSELTQRVISHVEAEAKIDDAEVHFLTVIPSLPYYASLGLAYSAELPAMDDLKAEAKSQLEEIIKKFKLPTDRVHVHVEEGSPKDRILELAKKIPAHMIIIASHRPDITTYLLGSNAAAVVRHAECSVLVVR | not soluble
MGSDKIHHHHHHMKITTVGLDIAKSVFHFVGVNKAGKLVKKKMIKRKDLLHFLAQIEPCLVVMEACGGANYWAREFEKVGHQVKLIAPQYVVPYRQGNKNDYNDALAIAEAAQRPNMRFVQPKPAEQQDIQMLHRMRERLSKQSTALVNQVRGMLAEYGIVITKGKASFRSKLPDILENADNELTAKGRSIFYQLYEEFNGIEERLKRCDNQVQQETKNNHVCQRLESVPGIGPVTATAFYAAVGEGKDFTNGRHFSAWCGLVPKQHSSGGKDNLLGISKRGNAYLRTLFIHGARAVLYHSDGKGDRFSRWAIALAERRGFNRACVAVANKLARIAWVIAAREDEYRMAV | not soluble
MSLSDAVNKHPKSPNPQLCAVTLLGNLVATPDIRYRANPATAVTEIVLATSSKWLDKITNKYKEWTSYHHVKVEGELVELALLNANKGDIILLHGYLSNIKPKSTDKSTNHLGIVHANFVQKFEKGYTQAINQIHCSAQLTSKPKLMLTEQNKNITQANIVINQHIYNTDKQAWQTISVERAIHVWGKQAQYLAEHGDIGDELMLEGKLSYTSGVSKDQFIEVKNVHLFKGTLEHHHHHH | soluble
MEFRQLKYFIAVAEAGNMAAAAKRLHVSQPPITRQMQALEADLGVVLLERSHRGIELTAAGHAFLEDARRILELAGRSGDRSRAAARGDVGELSVAYFGTPIYRSLPLLLRAFLTSTPTATVSLTHMTKDEQVEGLLAGTIHVGFSRFFPRHPGIEIVNIAQEDLYLAVHRSQSGKFGKTCKLADLRAVELTLFPRGGRPSFADEVIGLFKHAGIEPRIARVVEDATAALALTMAGAASSIVPASVAAIRWPDIAFARIVGTRVKVPISCIFRKEKQPPILARFVEHVRRSAKD | soluble
MAFEGLSERLQATMQKMRGKGKLTEADIKIMMREVRLALLEADVNFKVVKEFIKTVSERALGSDVMQSLTPGQQVIKIVQDELTQLMGGENTSINMSNKPPTVVMMVGLQGAGKTTTAGKLALLMRKKYNKKPMLVAADIYRPAAINQLQTVGKQIDIPVYSEGDQVKPQQIVTNALKHAKEEHLDFVIIDTAGRLHIDEALMNELKEVKDIAKPNEIMLVVDSMTGQDAVNVAESFDDQLDVTGVTLTKLDGDTRGGAALSIRSVTQKPIKFVGMSEKLDGLELFHPERMASRILGMGDVLSLIEKAQQDVDQEKAKDLEKKMRESSFTLDDFLEQLDQVKNLGPLDDIMKMIPGMNKMKGLDKLNMSEKQIDHIKAIIQSMTPAERNNPDTLNVSRKKRIAKGSGRSLQEVNRLMKQFNDMKKMMKQFTGGGKGKKGKRNQMQNMLKGMNLPF | not soluble
MDIKIIKDKKNPLLNRRELDFIVKYEGSTPSRNDVRNKLAAMLNAPLELLVIQRIKTEYGMQESKGYAKLYEDADRMKQVEQEYVLKRNAVPGSETEGEEALEHHHHHH | soluble
MNGTLDHPDQPDLDAIKMFVGQVPRTWSEKDLRELFEQYGAVYEINVLRDRSQNPPQSKGCCFVTFYTRKAALEAQNALHNMKVLPGMHHPIQMKPADSEKNNAVEDRKLFIGMISKKCTENDIRVMFSSFGQIEECRILRGPDGLSRGCAFVTFTTRAMAQTAIKAMHQAQTMEGCSSPMVVKFADTQKDKEQKRMAQQLQQQMQQISAASVWGNLAGLNTLGPQYLALLQQTASSGNLNTLSSLHPMGGLNAMQLQNLAALAAAASAAQNTPSGTNALTTSSSPLSVLTSSGSSPSSSSSNSVNPIASLGALQTLAGATAGLNVGSLAGMAALNGGLGSSGLSNGTGSTMEALTQAYSGIQQYAAAALPTLYNQNLLTQQSIGAAGSQKEGPEGANLFIYHLPQEFGDQDLLQMFMPFGNVVSAKVFIDKQTNLSKCFGFVSYDNPVSAQAAIQSMNGFQIGMKRLKVQLKRSKNDSKPY | soluble
MKAFSSYDEKPPAPPIRFSSSATRENQVVGLKPLPKEPEATKKKKTMPNPFMKKNKDKKEASEKPVISRPSNFEHTIHVGYDPKTGEFTGMPEAWARLLTDSQISKQEQQQNPQAVLDALKYYTQGESSGQKWLQYDMNDAPSRTPSYGLKPQPYSTSSLPYHGNKIQDPRKMNPMTTSTSSAGYNSKQGVPPTTFSVNENRSSMPPSYAPPPVPHGETPADIVPPAIPDRPARTLSIYTKPKEEEEKIPDLSKGQFGVQARGQKAKKKMTDAEVLTKLRTIVSIGNPDRKYRKVDKIGSGASGSVYTAIEISTEAEVAIKQMNLKDQPKKELIINEILVMRENKHANIVNYLDSYLVCDELWVVMEYLAGGSLTDVVTECQMEDGIIAAVCREVLQALEFLHSRHVIHRDIKSDNILLGMDGSVKLTDFGFCAQLSPEQRKRTTMVGTPYWMAPEVVTRKQYGPKVDVWSLGIMAIEMVEGEPPYLNENPLRAIYLIATNGKPDFPGRDSMTLLFKDFVDSALEVQVENRWSASQLLTHPFLRCAKPLASLYYLIVAAKKSIAEASNS | not soluble
MMRGGMGNMQKMLKQMQKMQKEMQKAQEELAEKTVEGTAGGGMVTVVANGHKQILEVKIKEEVVDPDDIEMLQDLILAATNDALKKADELANEMMGQFTKGLNIPGLF | not soluble
MGSDKIHHHHHHMSEYIQLYRYLNSRLPGVERKRLVLLTGARQTGKTTLAKAKYADLRYVNLDAPENREAVRTIASAFWARDIGPAVLDEAQKEPVVFDKVKYAYDDGALSFSVLLGSSQILLLKKIRETLAGRISIYELWPLLMSEICNGSAAPPSSPPLVDCLFSDMTCDDFFGDKPGILLDMEDACRRRAEEHLLQWGGMPSLLPLNTEERRQWLKDYGYTYLERDMADLARLEDLMPFRKFQRLAALRSGCLLNYSELARDAAISVDTARRYLEYLRLSYQTVFLPPYHVNLTSAVVKTPKVYWLDVGLLRQLSGMQGPTTGEIYETMVVGELMKWMKTAGREGDVFFYRTRSGLEVDVLLETPSGVVGMEIKSRRVLAARDLTGLKEIALALGPRWRGGLVIYQGDELKRIGTPQLWAVPSRRLFTGIE | not soluble
MHKSNNKIRQRIIIKLSGAGLTKENSQPFSNDFFETIINQLKVLKESYQVGIVIGGGNIIRGNNCQEFNIAEYHGHQLGIIATVVNGYFLKAKLDAHNLKSALLSAISCPSLAVQILSQQTIDKAFEENDFVIFSGGTGNPYFSTDTALALRAVQTKAVAILIGKNGVDGVYTADPKKDKNATFLPTLNYDHAIKNDLKIMDITAFTMCKENNLKIIIFNINAENALLDALNKKGRFTIIENNLEHHHHHH | soluble
FTQMVIRLHIYHLVSTVSPHNVNIDASIAARGLSGEGYRGHYFWDEIYIMPFFIQHLPEVARALLMFRYHRLDAAREYARDNGYHGAMYPWQTADDGREETPTIHYNPKSGAWDPDLSCRQRHVSIAVFYNAWRYVHDTGDTEFLNSYGAEMMFEIARFWASIATFSPDDGRYHIEGVMGPDEFHEELPGSGKPGLKDNSYTNIMTAWLLEKAIEISQRLDPAVMDGLMEKIGIGHDEFMKWRDISGKMNVLIDQNGILEQFDGYMGLKELDWEHYKLKYGNIHRMDRILKAENDSPDHYKVAKQADVLMTFYTLSPAEVCAILENLGYHVADPLRFVRDNYAFYEPRTSHGSTLSKVVHSIISSYLPNGHEMAWNWFIEALRSDIHDTQGGTTPEGLHCGVMAGTIDTVT | not soluble
MSLKITNVEAVALDVPIMVRHRKDPFVRQCNLVRIDTDSGISGYGYTSPGEWHSTAAKVVNDMFRDVLIGQNPCKINSVISSLSTRFNRHRATGAWASAVSMVDIGLWDLLGKLYGVPTSVLLGGARTEVPVYITFGLAEYSTEELVDTVSHLVDEGHTRFKMIVGGLRSRPITREESLRPGGSHWFQGFTEDLLLNDVKRVAAVREAIGPDKGLMVDGNGAFPLGEAKRLAQNLEPFNLIWFEEPVLGNDPDLLQRLRDQTTVPIAAGQNIGSLAAHRTLIESKSYDICQLNVTHCGGYSEALKIAHLAEAHNMPIATGGAQPHHNMHFHAGVQNGGLVEFHWLSWKVGEALFVDPPAPRNGFVSLTDEPGLGLEVRPDAIEKFRVEGHHHHHH | soluble
MNVSVVIPALNEEATVADVVALSRRGSDEVIVIDSDSTDATAARAKAAGASVVNWRDVVSLPPIPGKGEALWRGVAAARGDVVVFLDADLTEISPTIVEDLARPFIDDSVMLAKAAYTRGDASGGGGRVTELTARPLLEAFFPELGFVRQPLGGEYAIRRSAALDLPFVGGYGVEVGLLIDVFRCFGAASIVEVEAGHRGHRHRPLRELAPMARVVASTILQRAGVASGLDGVGQRPAISSLESGVGKV | not soluble
KDYDAYLSYTKVDPDQWNQETGEEERFALEILPDMLEKHYGYKLFIPDRDLIPTGTYIEDVARCVDQSKRLIIVMTPNYVVRRGWSIFELETRLRNMLVTGEIKVILIECSELRGIMNYQEVEALKHTIKLLTVIKWHGPKCNKLNSKFWKRLQYEMPF | soluble
MVGGSLSPAFTIDEATSYINAVKEAFGADQPAKYREFLDIMLDLRANRVDLATVVPRMRELLKDHVNLLLRFNAFLPAEAKETFHDVRSYIYSLKESFRDEPAKYAQFLEILNDYSARRVDAPSAVARMTELMKDHRNLVLGFSVLLSTGDTKTTPLEAEPDNNKRIRVANFISKLKARFQGNDGHVYESFLEILTMYQQGNKSVNDLYQEVVALLQGHEDLVMEFSNVFKRTTGPSGSKSARDR | soluble
MGSDKIHHHHHHMNRAATLAAYLTEKNWMSQPVSAGQVSFLAAGEYNENWLVQCGGRAAVLRINHGSQLGLRNQSEYEFSVLRHVASSGLTPQPYALDPLPWKHGPGKGAMLMEYIPGTPPDYRLHAADAARLFARVHGCPLPPRGDMIVQPDPVRDIARESTGLLHRQPDHPRSDIRTRLLNYRDTVLRLADDTAQLFAGEPQVITNTEVNSGNFIVLPPQHPRRGNEQAGVALCLVDWEKAVISCCHQDLGHFLVPTTTRWKTDFTFDAQSRTDFLRAYLQARHGSVDADALEALHLRTRVLERTILLRALSWCFMAWYEYSRGDRTLRNEFTYGRITSYLENIECILKYGE | not soluble
MSLVIVAIGCTFAAIPAYRIFCEQTSFGGLTQVAKDFDKIANMKKCEDRLIRVQFNSDVPSSMRWEFKPQQHEIYVHPGETALAFYTARNPTDKPIIGISSYNLTPFQAAYYFNKIQCFCFEEQILNPGEQVDLPVFFYIDPDYVNDPALEYLDSILLSYTFFEAKSGLKLPDPFDPKNRPSIAPSPDKVPEATK | not soluble
MGSDKIHHHHHHMLLDYDVALEDDFQQFIKQIPAPVRALLDSADPVARHQRQAVYTLFGIPGRPATMTPLVEALAMVSTLDTPSFAPTPTINDLALSKAHAYASQYLLQQFIRTVSHTTMLPPANRHELLTAAQSLPLANLNRLRLNFNQRERIADFLKDTKDRPAKLTSLSGYLATSLAGLDPAICGLARAIGESVGIVLTILTDVQVTRQIADFRERLLMGNYPLPLLFGFENDPGYFYDFFHQAHKPTADQFVATQQRVLMIGVAPALTMANELVDQARLDSQQLPTDLKKRVEQALTRLAAATAQPH | not soluble
